Consider one substance from patent publication US20120083519.

Series [1] has as its system C-mip protein (c-maf inducing protein), human, full-length.
Series [2] concerns T1, nephrin (co-expressed in HEK cells).
T1 sequence: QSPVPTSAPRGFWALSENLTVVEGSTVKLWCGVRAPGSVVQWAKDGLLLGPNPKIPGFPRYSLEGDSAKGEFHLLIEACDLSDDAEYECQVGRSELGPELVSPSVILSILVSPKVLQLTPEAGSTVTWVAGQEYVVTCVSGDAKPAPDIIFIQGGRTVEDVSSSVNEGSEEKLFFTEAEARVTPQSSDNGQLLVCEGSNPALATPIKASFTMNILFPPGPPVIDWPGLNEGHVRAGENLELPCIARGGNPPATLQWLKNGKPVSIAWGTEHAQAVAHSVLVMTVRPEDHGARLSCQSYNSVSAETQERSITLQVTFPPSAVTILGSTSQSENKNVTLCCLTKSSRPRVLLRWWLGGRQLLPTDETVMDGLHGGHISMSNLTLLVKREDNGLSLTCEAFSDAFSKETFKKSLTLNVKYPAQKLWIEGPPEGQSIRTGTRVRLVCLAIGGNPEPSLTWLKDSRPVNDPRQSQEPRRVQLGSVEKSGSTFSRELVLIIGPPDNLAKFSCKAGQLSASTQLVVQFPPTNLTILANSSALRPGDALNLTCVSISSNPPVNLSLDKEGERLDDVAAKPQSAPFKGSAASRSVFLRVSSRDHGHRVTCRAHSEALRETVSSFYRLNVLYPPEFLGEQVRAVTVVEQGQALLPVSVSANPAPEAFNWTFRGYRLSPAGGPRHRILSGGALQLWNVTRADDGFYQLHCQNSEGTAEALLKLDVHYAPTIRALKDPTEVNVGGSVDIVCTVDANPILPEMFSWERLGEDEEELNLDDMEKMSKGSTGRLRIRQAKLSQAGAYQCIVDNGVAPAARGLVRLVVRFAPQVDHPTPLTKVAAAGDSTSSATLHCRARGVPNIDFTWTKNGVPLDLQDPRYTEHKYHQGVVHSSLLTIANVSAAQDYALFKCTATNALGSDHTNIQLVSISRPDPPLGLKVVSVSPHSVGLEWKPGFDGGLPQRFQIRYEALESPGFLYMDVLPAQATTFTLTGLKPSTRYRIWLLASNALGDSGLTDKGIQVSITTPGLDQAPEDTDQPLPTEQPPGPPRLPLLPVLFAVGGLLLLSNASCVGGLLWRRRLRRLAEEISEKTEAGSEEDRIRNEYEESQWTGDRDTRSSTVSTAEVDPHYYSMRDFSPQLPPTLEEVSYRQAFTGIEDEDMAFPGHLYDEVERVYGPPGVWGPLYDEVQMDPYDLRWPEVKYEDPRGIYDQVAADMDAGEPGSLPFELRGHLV

C-mip protein (c-maf inducing protein), human, full-length, sequence (chain, as listed by the source): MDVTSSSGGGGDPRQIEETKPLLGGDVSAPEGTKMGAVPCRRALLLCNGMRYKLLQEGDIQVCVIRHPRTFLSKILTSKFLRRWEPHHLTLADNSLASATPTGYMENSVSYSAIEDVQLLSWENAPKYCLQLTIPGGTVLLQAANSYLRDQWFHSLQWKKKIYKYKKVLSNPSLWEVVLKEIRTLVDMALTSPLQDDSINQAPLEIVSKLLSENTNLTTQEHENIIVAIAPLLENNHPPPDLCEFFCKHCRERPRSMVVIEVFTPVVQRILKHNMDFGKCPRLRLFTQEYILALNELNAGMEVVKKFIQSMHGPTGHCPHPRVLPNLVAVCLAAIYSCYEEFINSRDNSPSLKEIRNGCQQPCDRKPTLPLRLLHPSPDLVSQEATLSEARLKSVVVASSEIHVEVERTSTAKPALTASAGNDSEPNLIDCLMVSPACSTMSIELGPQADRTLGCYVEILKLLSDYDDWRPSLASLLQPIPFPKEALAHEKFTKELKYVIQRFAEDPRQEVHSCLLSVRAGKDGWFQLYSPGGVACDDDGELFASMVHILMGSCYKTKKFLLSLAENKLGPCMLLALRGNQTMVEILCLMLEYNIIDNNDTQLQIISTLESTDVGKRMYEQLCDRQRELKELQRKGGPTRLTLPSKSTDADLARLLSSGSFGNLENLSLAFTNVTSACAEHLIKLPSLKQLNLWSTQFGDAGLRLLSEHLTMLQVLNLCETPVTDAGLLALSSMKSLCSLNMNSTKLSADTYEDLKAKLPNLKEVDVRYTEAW

On to “Fyn (expressed from Fyn plasmid in HEK 293 cells)”, for which the “phosphorylation of nephrin by Fyn at Y1208” value in series [1] was “co-expression of c-mip reduced the phosphorylation of nephrin by Fyn at this tyrosine residue”. Moreover, the “phosphorylation of nephrin at tyrosine residue Y1208” value in series [2] was “Co-expression of nephrin and Fyn induced phosphorylation of nephrin at tyrosine residue Y1208”.
